The results in this text go back to patent US20220332804A1 (CSL INNOVATION, published 2022).

What all share (experiment): SPR, mAb captured, C2 mutant analyte;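 further: Anti-C2 mAbs captured on goat anti-human IgG Biacore CM5 chips, alanine or serine C2 surface mutants flowed over at 37 °C, double-referenced sensorgrams fitted to a 1:1 binding model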
Assay [1] addresses T1, human C2 K244A (human, UniProt P06681 21-752).
T1 sequence: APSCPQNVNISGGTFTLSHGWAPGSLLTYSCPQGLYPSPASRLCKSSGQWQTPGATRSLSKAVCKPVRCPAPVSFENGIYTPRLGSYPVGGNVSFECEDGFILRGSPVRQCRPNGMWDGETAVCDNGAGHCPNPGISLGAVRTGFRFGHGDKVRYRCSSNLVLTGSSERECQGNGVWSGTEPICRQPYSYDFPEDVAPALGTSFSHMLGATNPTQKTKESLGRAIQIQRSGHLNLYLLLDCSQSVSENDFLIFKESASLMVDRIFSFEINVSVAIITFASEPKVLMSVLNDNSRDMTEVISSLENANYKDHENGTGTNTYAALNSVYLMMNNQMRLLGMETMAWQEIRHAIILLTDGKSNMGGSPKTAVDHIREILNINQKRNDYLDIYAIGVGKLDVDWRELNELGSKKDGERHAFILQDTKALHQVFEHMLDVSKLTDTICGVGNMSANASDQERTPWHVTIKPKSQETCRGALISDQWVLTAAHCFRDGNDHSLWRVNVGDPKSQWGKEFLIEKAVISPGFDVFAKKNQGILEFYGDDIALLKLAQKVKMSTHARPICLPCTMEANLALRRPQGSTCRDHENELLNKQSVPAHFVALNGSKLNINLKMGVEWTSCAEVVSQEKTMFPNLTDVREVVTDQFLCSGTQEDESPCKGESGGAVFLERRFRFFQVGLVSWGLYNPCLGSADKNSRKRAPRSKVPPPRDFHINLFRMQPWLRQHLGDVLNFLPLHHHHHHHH

In assay [2] the target is T2, human C2 Q447A (human, UniProt P06681 21-752).
T2 sequence: T1 sequence with A224K, Q427A

The target of assay [3] is T3, human C2 F270A (human, UniProt P06681 21-752).
T3 sequence: T1 sequence with A224K, F250A

Assay [4] concerns the target T4, human C2 M316A (human, UniProt P06681 21-752).
T4 sequence: T1 sequence with A224K, M296A

Changes are numbered by the printed parent chain.

B1: RF16-214 (antibody, V domains shown)
VH: EVQLLESGGGLVQPGGSLRLSCAASGFTFSWYQMMWVRQAPGKGLEWVSRIYPSGGGTAYADSVKGRFTISRDNSKNTLYLQMNSLRAEDTAVYYCARDAGYGDNWGQGTLVTVSS
VL: QSALTQPPSVSVSPGQTASITCSGDKLGEKYASWYQQKAGQSPVMVIYQDRKRPSGIPERFSGSNSGNTATLTISGTQAMDEADYYCQAWDTRAVVFGGGTKLTVLG
Consider B1, for which the Kd in assay [1] is 97.1 nM; in assay [2] it was 133 nM; in assay [4], 30.2 nM. In assay [3], the binding result was “no binding”.
